Laboratory results from the DeepSol protein solubility set.

Test: soluble on expression in E. coli; label from the status in PepcDB or PDB records

| Sequence | soluble on expression in E. coli |
| --- | --- |
| MSLTILNHTLGFPRVGLRRELKKAQESYWAGNSTREELLAVGRELRARHWDQQKQAGIDLLPVGDFAWYDHVLTTSLLLGNVPARHQNKDGSVDIDTLFRIGRGRAPTGEPAAAAEMTKWFNTNYHYMVPEFVKGQQFKLTWTQLLDEVDEALALGHKVKPVLLGPVTWLWLGKVKGEQFDRLSLLNDILPVYQQVLAELAKRGIEWVQIDEPALVLELPQAWLDAYKPAYDALQGQVKLLLTTYFEGVTPNLDTITALPVQGLHVDLVHGKDDVAELHKRLPSDWLLSAGLINGRNVWRADLTEKYAQIKDIVGKRDLWVASSCSLLHSPIDLSVETRLDAEVKSWFAFALQKCHELALLRDAVNSGDTAALAEWSAPIQARRHSTRVHNPAVEKRLAAITAQDSQRANVYEVRAEAQRARFKLPAWPTTTIGSFPQTTEIRTLRLDFKKGNLDANNYRTGIAEHIKQAIVEQERLGLDVLVHGEAERNDMVEYFGEHLDGFVFTQNGWVQSYGSRCVKPPIVIGDISRPAPITVEWAKYAQSLTDKPVKGMLTGPVTILCWSFPREDVSRETIAKQIALALRDEVADLEAAGIGIIQIDEPALREGLPLRRSDWDAYLQWGVEAFRINAAVAKDDTQIHTHMCYCEFNDIMDSIAALDADVITIETSRSDMELLESFEEFDYPNEIGPGVYDIHSPNVPSVEWIEALLKKAAKRIPAERLWVNPDCGLKTRGWPETRAALANMVQAAQNLRRGEGHHHHHH | soluble |
| MSLTILQELPKLSPLPARKLGSYTCKTVHMTTTELLPFHAVGTSPDAAAQADSNIETQFANVLHSLQVNKQRDPFDIIQDFKQICADRALSTRDKLSLDESNTALAEEFDNWDLEFKLWELVDRLFRFRALFSNKAKTELLREYDFSSMGIKQENFLRKNPAIRELSIIILWLQSHTPSLVGDETESYQTKWKNTAMAVANSDFDVLASRATDADLIDKLDIDAPLRSNRSIHPADESNDSKVFAQIYKLLLQDRVQDAIDIANNTGNYALALILVGATQEYFDPVLDKQDLDFDSIVAEQTKPSGIKHKLLWKKTVYKLSQQANLNKYEKLIYNYLCGGDISGNLLVASDDWEQTLLLYLSQLYSYNIDNFIVSQLSSEQEILPVNIPKPQLNTIAEILNTILHSGNLLTQQSENPLRVIMGSVMLDNVPSLLHNLTSSLTGEPEALKKPYISRVLTHLAIFQLLVVGTDNINNEDITTIITSYTSKLAEYKLPELIPIYLSFVPNEKDSREAYALFLSSLTDSSDRSKQIEISRRIANSISEVDEAMELAANTQEDKMMNVLRRTVERVMKDTESHYKPQAVIEVQDDINSVDDIDSKLYHSVEWFYENKMYEDAIVATIAIIRRFLLCGKLAPLKAFSKGKNFKLLLVEYDTQLQTKSLIFQNEPEIVTEEDKEELLAYASLIEGLILIDEWKKFVSTQINSEGHHHHHH | not soluble |
| MSLTIRDIAAKAGVSVSTASRALNNNPRISQATRERIQALAEAEGYLPNYNAKNLTAGESNAVGVVFATADRSQPENPFFIDILRGINAQLVQRDYVLSVAISKTADELLKNVKAMVAQGKIKRFVLLYAHQDDPIAAFLRQHHLRFVTIGQPDDNANDYFVDNDNLEAGIGGATFLLNQLQVKHPVFVESTHDWAYEQQRRQGYERVAATFNVEPLTCRLGELNRVRAFIKRHPEIDGIMATDDFNGIEFYRLMREQYGINHFPMVSFNQSLPNGLTDADLHSVNLFPEKMGSATVALLFSDKEPLETPTPGQIKIPFEIKEGHHHHHH | soluble |
| MSLTKEAIISYLSSDLFKGVGKKTAQNIVNTLGDNAINDILDDHSVLEKVSGLSKKKQKQIAEQISANQESEKIMIRLHDLGFGPKLSMAIYQFYLGDTLTILDRNPYQLIYDIKGIGFNKADQLARNIGIAYNDNERLKAALLYTLEEECIKQGHTYLPINVVIDLTVDVLNYQDEEVIEPEKLDEMLQYLNEEKRLIIDNEQVAIPSLYYSEIKSVQNLFRIKTHTNKLTEIEQSDLQMHIGEIEDANQVNYAASQKEALQTAINSKVMLLTGGPGTGKTTVIKGIVELYAEIHGLSLDYDDYVNDDYPVVLAAPTGRASKRLQESTGLEAMTIHRLIGWNQDTKPEDILENEINARLIIIDEMSMVDTWLFHQFLSAVPLDAQLIFVGDEDQLPSVGPGQVFKDLIESKAIPRVNLTEVYRQQDGSSIIELAHRMKLGQKIDITQRFHDRSFINCQANQIPTVVEKVVTSAVNKGYTMADIQVLAPMYKGNAGIKRLNQVLQDILNPKKKDTREIEFGDVVFRKGDKVLQLVNRPNDNIFNGDIGVIVGIFWAKENALNKDVLVVDFEGNEITFTKQDMMELTHAYCTSIHKSQGSEFPIVIMPIVKQYFRMLQRPILYTGLTRAKTSLVLLGDPEAFDIGLKTNGQARLTQLCTLLKNYFNSEGHHHHHH | soluble |
| MSLTKRWFNVGKIVNTHGIKGEVRVISKTDFAEERYKPGNTLYLFMDGRNEPVEVTVNTHRLHKQFHLLQFKEGQNLNEVEELKNAIIKVPEEELGELNEGEFYFHEIIGCEVFTEEGELIGKVKEILTPGANDVWVIGRKGKKDALIPYIESVVKHIDVREKKIEIELMEGLIDEEGGSHHHHHH | soluble |
| MSLTKVLVIDPKIAGMSGDMFVSSLLALTNSYDLMDELILELEKLNNCNSFKVSVMDEKVNGISAKQLKIEIDEERIKNPDELKEIIINTSKNLMSEKGVKICENIINDLIEAEKKLHGDHFHLHEISSLDTVFDIVLPVLILEKNGFLDGKIYSTPPSLGNGRISMDHGIIPSPAPSTLEILCKHEIKCSKVDSEFELLTPTGAAILSNVTDEFTDSYPEIVLLKTAYGAGTKRMEHVPNVLRLVEGKTDEKIIEKTVILETNIDDISSEILAYAVERLLNEGAPDVFITPVFGKKNRPSSMISVICPYHVHEKFAKILIEETGTLGVRINHYDKIRAKRRMEKLTLDINGVNFGFDVKISDLNGEIVNIKPEFEDLKKIAKNLNIPLRDVLRHANNKIKEIYGFEGHHHHHH | soluble |
| MSLTKVSSLGYPRLGENREWKKLIEAYWAGKVSKNDLFAGAKELRLDFLKKQLNAGLDLIPVGDFSLYDHILDLSVQFNIIPKRFAKEPIDIDLYFAIARGNKENVASSMKKWFNTNYHYIVPEWSKQRPKLNNNRLLDLYLEAREVVGDKAKPVITGPITYVALSTGVEDFTAAVKSLLPLYKQVFTELVKAGASYIQVDEPIFVTDEGKDYLQAAKAVYAYFAKEVPDAKFIFQTYFEGLIDSQVLSQLPVDAFGLDFVYGLEENLEAIKTGAFKGKEIFAGVIDGRNIWSSDFVKTSALLETIEEQSAALTIQPSCSLLHVPVTTKNETDLDPVLRNGLAFADEKLTEVKRLAEHLDGREDPAYDLHIAHFDALQAADFRNVKLEDLSRVATKRPSDFAKRRDIQQEKLHLPLLPTTTIGSFPQSREIRRTRLAWKRGDISDAEYKQFIQAEIERWIRIQEDLDLDVLVHGEFERVDMVEFFGQKLAGFTTTKFGWVQSYGSRAVKPPIIYGDVQHLEPITVEETVYAQSLTDRPVKGMLTGPITITNWSFERTDIPRDQLFNQIGLAIKDEIKLLENAGIAIIQVDEAALREGLPLRKSKQKAYLDDAVHAFHIATSSVKDETQIHTHMCYSKFDEIIDAIRALDADVISIETSRSHGDIIESFETAVYPLGIGLGVYDIHSPRVPTKEEVVANIERPLRQLSPTQFWVNPDCGLKTRQEPETIAALKVLVAATKEVRQKLGNEGHHHHHH | soluble |
| MSLTKYIFVTGGVVSSIGKGIVAASLGRLLKNRGLKVTIQKFDPYINVDPGTMSPYQHGEVFVTDDGAETDLDLGHYERFIDINLNKYSNVTTGKIYSEVLRKERKGEYLGATVQVIPHITNEIKEKIMRAAKMTDADVIITEVGGTVGDIESLPFLEALRQMKADMGSDNVMYIHTTLIPYLKAAGEMKTKPTQHSVKELRSLGIQPNILVVRTELPVSQNTKNKLAQFCDVNPEAVIESRDVETLYSIPLALQAQNMDQIVCDHLKLDAPAADMTEWRALEEKVLNLKKKTKIALVGKYVELPDAYISVVEALKHAGFDFDSDIEIDWVDSQELTAENVAERIGSADGILVPGGFGDRGIEGKIEAIRFARENDVPFLGICLGMQMACVEFGRNVVGLEDAGSAETNPDVTNNIIDLMADQENIENLGGTLRLGLYPCKLKKGTKTAAAYGNEDVVQERHRHRYEFNNKYRQLFEENGLVFSGVSPDNRLVEIVEIPEKQFFVACQFHPELISRPNRPQRLIKGFVGAALANKEKGHHHHHH | soluble |
